Target: the molecule itself
Test: cross-linking

B1: Alg44-6His (natural protein, Pseudomonas aeruginosa, UniProt Q9HY69 1-389, looked up)
chain: MNTAVNVNVVHESEAQRQFARVKLPARIRYIGANREGVDARLLDLSAGGFAFTASGAPIQPGDLYKGKLLFQVDSISFSLEVEFQVRSVDPASRRVGCEFQNLKPREVAALRYLITSYLAGEVIGVGDMLNTLQRENFTKARKQGGGNGGMGFFGRVRAVTLSTAIFVVGVGAFAFILNQMYNLYFVTHADSGVVSVPNQQITMPREGTVQSLLGPNAEVAKGAPIATFSANLLDMLKGNLTEEQLNPGNIEKLFGHQMKGTLTSPCDCRVVQQLVADGQYANKGQVIFTLAPRDSVASIEARFPYRNAAELAPGTRVNFQVAGDGVNRSGRIVNTAPVDGDLSSEIRVQIQPDQPLDAQYAGRPAEVSIGGLPGRTLLNKAVTLATAR
In the case of B1, the “stoichiometry N” value is reported as 2.
